Reference: patent publication US20150344570A1 (published 2015)

T1: FcγRIIa R (human, UniProt P12318 34-217)
T1 construct: extracellular domain; also called FcgRIIa R type; 2aR
T1 sequence (looked up): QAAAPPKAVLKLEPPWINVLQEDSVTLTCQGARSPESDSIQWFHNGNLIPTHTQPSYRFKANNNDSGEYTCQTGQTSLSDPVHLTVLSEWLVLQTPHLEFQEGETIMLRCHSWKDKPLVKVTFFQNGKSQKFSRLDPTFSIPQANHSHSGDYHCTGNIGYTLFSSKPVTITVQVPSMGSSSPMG

B1: GpH7-B3 variant P331_04F/GpL16-k0 (antibody, human IgG1, kappa)
heavy: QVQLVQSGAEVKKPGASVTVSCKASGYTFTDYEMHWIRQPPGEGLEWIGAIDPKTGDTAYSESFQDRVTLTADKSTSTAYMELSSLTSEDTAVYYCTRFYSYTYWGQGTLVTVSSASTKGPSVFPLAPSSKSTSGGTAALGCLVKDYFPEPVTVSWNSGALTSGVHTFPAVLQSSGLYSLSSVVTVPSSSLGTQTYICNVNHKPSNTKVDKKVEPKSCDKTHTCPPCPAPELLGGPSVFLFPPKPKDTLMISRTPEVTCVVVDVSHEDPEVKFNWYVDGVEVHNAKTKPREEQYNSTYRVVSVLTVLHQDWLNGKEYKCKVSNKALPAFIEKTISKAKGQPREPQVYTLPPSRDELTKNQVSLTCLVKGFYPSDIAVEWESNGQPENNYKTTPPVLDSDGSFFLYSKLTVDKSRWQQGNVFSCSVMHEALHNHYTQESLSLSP
light: DIVMTQSPLSLPVTPGEPASISCQASESLVHSNRNTYLHWYLQKPGQSPQLLIYKVSNRFSGVPDRFSGSGSGTDFTLKISRVEAEDVGVYYCSQNTHVPPTFGQGTKVEIERTVAAPSVFIFPPSDEQLKSGTASVVCLLNNFYPREAKVQWKVDNALQSGNSQESVTEQDSKDSTYSLSSTLTLSKADYEKHKVYACEVTHQGLSSPVTKSFNRGEC
notes: also called Ho Ab P331_04F
B2: GpH7-A5/GpH7-B3 variant N325_01G/GpL16-k0 (antibody, human IgG1, kappa)
heavy 1: not shown
heavy 2: not shown
light: B1 light
notes: also called He Ab N325_01G
B3: GpH7-A5/GpH7-B3 variant A327_09D/GpL16-k0 (antibody, human IgG1, kappa)
heavy 1: not shown
heavy 2: not shown
light: B1 light
notes: also called He Ab A327_09D
B4: GpH7-A5/GpH7-B3 variant A327_10E/GpL16-k0 (antibody, human IgG1, kappa)
heavy 1: not shown
heavy 2: not shown
light: B1 light
notes: also called He Ab A327_10E
B5: GpH7-A5/GpH7-B3 variant A330_01G/GpL16-k0 (antibody, human IgG1, kappa)
heavy 1: not shown
heavy 2: not shown
light: B1 light
notes: also called He Ab A330_01G
B6: GpH7-A5/GpH7-B3 variant A330_05P/GpL16-k0 (antibody, human IgG1, kappa)
heavy 1: not shown
heavy 2: not shown
light: B1 light
notes: also called He Ab A330_05P
B7: GpH7-A5/GpH7-B3 variant A330_11K/GpL16-k0 (antibody, human IgG1, kappa)
heavy 1: not shown
heavy 2: not shown
light: B1 light
notes: also called He Ab A330_11K
B8: GpH7-A5/GpH7-B3 variant A330_12R/GpL16-k0 (antibody, human IgG1, kappa)
heavy 1: not shown
heavy 2: not shown
light: B1 light
notes: also called He Ab A330_12R
B9: GpH7-A5/GpH7-B3 variant A330_15Y/GpL16-k0 (antibody, human IgG1, kappa)
heavy 1: not shown
heavy 2: not shown
light: B1 light
notes: also called He Ab A330_15Y
B10: GpH7-A5/GpH7-B3 variant A330_19Q/GpL16-k0 (antibody, human IgG1, kappa)
heavy 1: not shown
heavy 2: not shown
light: B1 light
notes: also called He Ab A330_19Q
B11: GpH7-A5/GpH7-B3 variant E269_09D/GpL16-k0 (antibody, human IgG1, kappa)
heavy 1: not shown
heavy 2: not shown
light: B1 light
notes: also called He Ab E269_09D
B12: GpH7-A5/GpH7-B3 variant E333_04F/GpL16-k0 (antibody, human IgG1, kappa)
heavy 1: not shown
heavy 2: not shown
light: B1 light
notes: also called He Ab E333_04F
B13: GpH7-A5/GpH7-B3 variant E333_05P/GpL16-k0 (antibody, human IgG1, kappa)
heavy 1: not shown
heavy 2: not shown
light: B1 light
notes: also called He Ab E333_05P
B14: GpH7-A5/GpH7-B3 variant E333_07I/GpL16-k0 (antibody, human IgG1, kappa)
heavy 1: not shown
heavy 2: not shown
light: B1 light
notes: also called He Ab E333_07I
B15: GpH7-A5/GpH7-B3 variant E333_08L/GpL16-k0 (antibody, human IgG1, kappa)
heavy 1: not shown
heavy 2: not shown
light: B1 light
notes: also called He Ab E333_08L
B16: GpH7-A5/GpH7-B3 variant E333_09D/GpL16-k0 (antibody, human IgG1, kappa)
heavy 1: not shown
heavy 2: not shown
light: B1 light
notes: also called He Ab E333_09D
B17: GpH7-A5/GpH7-B3 variant E333_15Y/GpL16-k0 (antibody, human IgG1, kappa)
heavy 1: not shown
heavy 2: not shown
light: B1 light
notes: also called He Ab E333_15Y
B18: GpH7-A5/GpH7-B3 variant G236_14T/GpL16-k0 (antibody, human IgG1, kappa)
heavy 1: not shown
heavy 2: not shown
light: B1 light
notes: also called He Ab G236_14T
B19: GpH7-A5/GpH7-B3 variant G237_02A/GpL16-k0 (antibody, human IgG1, kappa)
heavy 1: not shown
heavy 2: not shown
light: B1 light
notes: also called He Ab G237_02A
B20: GpH7-A5/GpH7-B3 variant G237_04F/GpL16-k0 (antibody, human IgG1, kappa)
heavy 1: not shown
heavy 2: not shown
light: B1 light
notes: also called He Ab G237_04F
B21: GpH7-A5/GpH7-B3 variant G237_06M/GpL16-k0 (antibody, human IgG1, kappa)
heavy 1: not shown
heavy 2: not shown
light: B1 light
notes: also called He Ab G237_06M
B22: GpH7-A5/GpH7-B3 variant G237_08L/GpL16-k0 (antibody, human IgG1, kappa)
heavy 1: not shown
heavy 2: not shown
light: B1 light
notes: also called He Ab G237_08L
B23: GpH7-A5/GpH7-B3 variant G237_09D/GpL16-k0 (antibody, human IgG1, kappa)
heavy 1: not shown
heavy 2: not shown
light: B1 light
notes: also called He Ab G237_09D
B24: GpH7-A5/GpH7-B3 variant G237_10E/GpL16-k0 (antibody, human IgG1, kappa)
heavy 1: not shown
heavy 2: not shown
light: B1 light
notes: also called He Ab G237_10E
B25: GpH7-A5/GpH7-B3 variant G237_13S/GpL16-k0 (antibody, human IgG1, kappa)
heavy 1: not shown
heavy 2: not shown
light: B1 light
notes: also called He Ab G237_13S
B26: GpH7-A5/GpH7-B3 variant G237_15Y/GpL16-k0 (antibody, human IgG1, kappa)
heavy 1: not shown
heavy 2: not shown
light: B1 light
notes: also called He Ab G237_15Y
B27: GpH7-A5/GpH7-B3 variant G237_18N/GpL16-k0 (antibody, human IgG1, kappa)
heavy 1: not shown
heavy 2: not shown
light: B1 light
notes: also called He Ab G237_18N
B28: GpH7-A5/GpH7-B3 variant G237_19Q/GpL16-k0 (antibody, human IgG1, kappa)
heavy 1: not shown
heavy 2: not shown
light: B1 light
notes: also called He Ab G237_19Q

The binders below were run against T1, FcγRIIa R (assay: SPR (Biacore), captured antibody, FcγR as analyte; relative binding activity).
Method: Analysis of interaction between objective antibody and the FcγR was carried out using Biacore T100 (GE Healthcare). HBS-EP+ (GE Healthcare) was used as the running buffer, and the measurement temperature was set to 25° C. Chips produced by immobilizing the antigen peptide by the amine coupling method to a Series S Sencor Chip CM5 (GE Healthcare), or alternatively, chips produced by allowing preliminarily biotinylated antigen peptides to interact with and immobilize onto a Series S Sensor Chip SA (certified) (GE Healthcare) were used. Antibodies of interest were captured onto an antigen peptide-immobilized chip, and allowed to interact to each FcγR diluted with running buffer. To regenerate and repeatedly use the chip, the antibodies captured on the chip were washed off by reacting 10 mM glycine-HCl, pH 1.5.
With B1 the Ho/Con_2aR was 106 % (GpH7-B3/GpL16-k0 = 100).
With B2 the He/Con_2aR was 107 % (GpH7-A5/GpH7-B3/GpL16-k0 = 100).
With B3 the He/Con_2aR was 124 % (GpH7-A5/GpH7-B3/GpL16-k0 = 100).
B4 was tested, and the He/Con_2aR was 110 % (GpH7-A5/GpH7-B3/GpL16-k0 = 100).
With B5 the He/Con_2aR was 109 % (GpH7-A5/GpH7-B3/GpL16-k0 = 100).
For B6, the He/Con_2aR was 115 % (GpH7-A5/GpH7-B3/GpL16-k0 = 100).
With B7 the He/Con_2aR was 110 % (GpH7-A5/GpH7-B3/GpL16-k0 = 100).
For B8, the He/Con_2aR was 104 % (GpH7-A5/GpH7-B3/GpL16-k0 = 100).
In the case of B9, the He/Con_2aR is reported as 102 % (GpH7-A5/GpH7-B3/GpL16-k0 = 100).
In the case of B10, the He/Con_2aR is reported as 104 % (GpH7-A5/GpH7-B3/GpL16-k0 = 100).
In the case of B11, the He/Con_2aR is reported as 105 % (GpH7-A5/GpH7-B3/GpL16-k0 = 100).
With B12 the He/Con_2aR was 102 % (GpH7-A5/GpH7-B3/GpL16-k0 = 100).
B13 was tested, and the He/Con_2aR was 105 % (GpH7-A5/GpH7-B3/GpL16-k0 = 100).
B14 was tested, and the He/Con_2aR was 104 % (GpH7-A5/GpH7-B3/GpL16-k0 = 100).
With B15 the He/Con_2aR was 103 % (GpH7-A5/GpH7-B3/GpL16-k0 = 100).
For B16, the He/Con_2aR was 103 % (GpH7-A5/GpH7-B3/GpL16-k0 = 100).
In the case of B17, the He/Con_2aR is reported as 101 % (GpH7-A5/GpH7-B3/GpL16-k0 = 100).
For B18, the He/Con_2aR was 103 % (GpH7-A5/GpH7-B3/GpL16-k0 = 100).
With B19 the He/Con_2aR was 126 % (GpH7-A5/GpH7-B3/GpL16-k0 = 100).
With B20 the He/Con_2aR was 126 % (GpH7-A5/GpH7-B3/GpL16-k0 = 100).
With B21 the He/Con_2aR was 133 % (GpH7-A5/GpH7-B3/GpL16-k0 = 100).
With B22 the He/Con_2aR was 133 % (GpH7-A5/GpH7-B3/GpL16-k0 = 100).
In the case of B23, the He/Con_2aR is reported as 156 % (GpH7-A5/GpH7-B3/GpL16-k0 = 100).
For B24, the He/Con_2aR was 116 % (GpH7-A5/GpH7-B3/GpL16-k0 = 100).
For B25, the He/Con_2aR was 121 % (GpH7-A5/GpH7-B3/GpL16-k0 = 100).
With B26 the He/Con_2aR was 129 % (GpH7-A5/GpH7-B3/GpL16-k0 = 100).
B27 was tested, and the He/Con_2aR was 150 % (GpH7-A5/GpH7-B3/GpL16-k0 = 100).
In the case of B28, the He/Con_2aR is reported as 121 % (GpH7-A5/GpH7-B3/GpL16-k0 = 100).
